This note sets out measurements from patent EP0785948B1.

For this assay, the target named is KGF receptor (membrane preparations from Balb/MK mouse epidermal keratinocytes) (mouse) (UniProt P21803). In words: radioreceptor competition against 125I-labeled E. coli KGF, Balb/MK membrane preparations.
KGF receptor (membrane preparations from Balb/MK mouse epidermal keratinocytes) (mouse), sequence (P21803 22-821): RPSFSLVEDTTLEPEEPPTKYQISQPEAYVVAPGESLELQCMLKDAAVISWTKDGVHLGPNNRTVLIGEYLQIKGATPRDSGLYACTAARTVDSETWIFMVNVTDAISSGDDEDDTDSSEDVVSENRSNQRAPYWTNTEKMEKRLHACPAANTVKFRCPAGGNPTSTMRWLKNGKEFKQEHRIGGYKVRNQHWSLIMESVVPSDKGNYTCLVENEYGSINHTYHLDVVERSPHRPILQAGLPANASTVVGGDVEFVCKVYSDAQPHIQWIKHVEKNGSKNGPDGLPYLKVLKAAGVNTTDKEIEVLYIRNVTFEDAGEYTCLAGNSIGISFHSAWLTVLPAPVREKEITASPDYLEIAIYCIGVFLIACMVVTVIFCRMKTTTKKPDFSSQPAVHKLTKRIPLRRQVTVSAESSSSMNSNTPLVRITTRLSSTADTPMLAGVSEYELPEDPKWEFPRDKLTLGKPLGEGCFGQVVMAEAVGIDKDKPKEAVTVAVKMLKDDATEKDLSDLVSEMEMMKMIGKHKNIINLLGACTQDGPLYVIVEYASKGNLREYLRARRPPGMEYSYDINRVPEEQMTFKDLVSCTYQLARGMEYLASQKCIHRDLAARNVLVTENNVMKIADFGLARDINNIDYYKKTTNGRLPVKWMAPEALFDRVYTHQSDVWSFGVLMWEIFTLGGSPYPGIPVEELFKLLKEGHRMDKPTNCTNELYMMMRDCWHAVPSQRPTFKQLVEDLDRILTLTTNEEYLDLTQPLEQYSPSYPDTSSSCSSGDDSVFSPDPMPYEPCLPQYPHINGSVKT

As for “KGF-a (CHO-derived glycosylated recombinant KGF, 25-29 kDa form) (ligand)”, the KGF concentration to compete receptor binding with I^125-labeled KGF at 60% uncompetition rate amounted to 93.5 ng/mL. Next, “E. coli-derived, full-length native KGF (keratinocyte growth factor) (ligand)”: 65.8 ng/mL. Next, “KGF-b (CHO-derived N-terminally truncated unglycosylated KGF, about 17 kDa, cleaved at Arg23-Ser24) (ligand)”: 89.1 ng/mL.
